Source: publication PMC4252830 (Insect biochemistry and molecular biology, 2014)

What was measured:
[1] = target: T1, AgEH (epoxide hydrolase from Anopheles gambiae) (Anopheles gambiae, UniProt Q7PZL6); test: % activity remaining on t-DPPO, recombinant AgEH in Sf-9 microsomes; assay type: cell-based; details: read-out: t-DPPO / 500nM
T1 sequence (Q7PZL6 1-340): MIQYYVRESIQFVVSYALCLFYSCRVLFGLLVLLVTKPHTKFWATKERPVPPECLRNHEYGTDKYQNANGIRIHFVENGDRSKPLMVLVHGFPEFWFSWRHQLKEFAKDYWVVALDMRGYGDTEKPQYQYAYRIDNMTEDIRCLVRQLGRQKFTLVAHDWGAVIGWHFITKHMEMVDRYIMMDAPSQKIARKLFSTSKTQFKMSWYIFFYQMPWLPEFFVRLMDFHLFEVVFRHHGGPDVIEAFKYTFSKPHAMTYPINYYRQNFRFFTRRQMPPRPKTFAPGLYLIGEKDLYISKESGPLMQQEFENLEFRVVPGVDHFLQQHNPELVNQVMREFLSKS

[2] = target: T1, AgEH (epoxide hydrolase from Anopheles gambiae); test: inhibition of […],15-EET hydrolysis by recombinant AgEH in Sf-9 microsomes; assay type: biochemical
[3] = substrate: c1ccc(C[C@@H]2O[C@H]2c2ccccc2)cc1; assay type: biochemical, Anopheles gambiae
[4] = substrate: COC(=O)/C=C(\C)CC/C=C(\C)CC[C@H]1OC1(C)C; assay type: biochemical, Anopheles gambiae
[5] = substrate: CCCCCC1OC1C/C=C\C/C=C\C/C=C\CCCC(=O)O; test: Michaelis-Menten kinetics, LC-MS/MS, recombinant AgEH in Sf-9 microsomes; assay type: biochemical, Anopheles gambiae
[6] = substrate: CCCCC/C=C\CC1OC1CCCCCCCC(=O)O; test: as above; assay type: biochemical, Anopheles gambiae

## O=C(Nc1ccc(OC(F)(F)F)cc1)N[C@H]1CC[C@H](Oc2ccc(C(=O)O)cc2)CC1 [compound 2, trans-4-{4-[3-(4-trifluoromethoxy-phenyl)-ureido]-cyclohexyloxy}-benzoic acid]
[1]
  activity at 0.5 µM: 12.5%

## O=C(O)CCCCCCCCCCCNC(=O)NC12CC3CC(CC(C3)C1)C2 [compound 1, 12-(3-adamantan-1-yl-ureido) dodecanoic acid]
[2]
  IC50: ~60 nM

B1: AgEH (epoxide hydrolase from Anopheles gambiae) (Anopheles gambiae) (protein)
chain: T1 sequence (Q7PZL6 1-340)
[3]
  Km: 30.5 ± 5.0 µM
  Vmax: 1.2 µmol/min/mg
  Vmax/Km: 41000 µL/min/mg
[4]
  Km: 9.8 ± 2.0 µM
  Vmax: 1.3 µmol/min/mg
  Vmax/Km: 130000 µL/min/mg
[5]
  Km: 3.0 ± 0.3 µM
  Vmax: 1.4 µmol/min/mg
  Vmax/Km: 460000 µL/min/mg
[6]
  Km: 7.0 ± 0.6 µM
  Vmax: 1.5 µmol/min/mg
  Vmax/Km: 210000 µL/min/mg
